# Square brackets hold non-standard residues; d marks the D form. Ends that are not written are not given here. pGlu = O=C1CC[C@@H](C(=O)O)N1
# B1: [Glp^1] pentapeptide (peptide)
# peptide: [pGlu]HNPR
# B2: [Gln^1] pentapeptide (peptide)
# peptide: QHNPR
# Assays:
# [1] = Chromatographic characterization of radioactive peptide uptake by tissues (methanol extraction, RP-HPLC); format: in vivo, rat
# Protocol: The chromatographic characteristics of the labeled compound associated, in vivo, to target organs were assessed by HPLC.
# At selected time points (2 and 180 min.) after administration of tritiated pentapeptide, the anesthetized rats were sacrificed (cardiac blood puncture) and tissues quickly removed on ice. The tissues were immediately homogenized at 4° C. in 5-10 volumes of 0.1 M chlorhydric acid using a potter homogenizer (demineralization of bone tissue was realized after 24-48 h at 4° C. in guanidium hydrochloride and EDTA pretreatment, 4 M and 0.25 M final concentration, respectively). Homogenates were centrifuged for 30 min. at 4° C. and 15,000 g. To determine total radioactivity, aliquots of the supernatant solution were added to 50 volumes of Biofluor (NEN, Dupont de Nemours, France) and counted in a liquid scintillation counter.
# To determine the radioactivity in the pentapeptide fraction, aliquots of the tissue extracts were submitted to a methanol-extraction procedure (Rougeot et al., 1994) after neutralization with Tris/HCl pH 8.5 containing 16 mM DTPA (DiethyleneTriaminePenta-Acetic acid, Sigma, France). The methanol phase was removed from the supernatant by partial evaporation, then lyophilization and the reconstituted aqueous phase containing 16 mM DTPA was applied to ODS AQ column (HPLC RP C18 chromatography) (AIT, France). Elution with a linear gradient of 0.1% trifluoro acetic (TFA) in water/0.1% TFA in acetonitrile (Merck, France) from 100/0 (vol/vol) to 50/50 (vol/vol) was performed for 30 min. at a flow rate of 1 ml/min. Fractions were collected every 60 sec. and analyzed for radioactivity using a liquid scintillation counter.
# [2] = Pentapeptide metabolic and pharmacokinetic study after i.v. bolus of tritiated pentapeptide; format: in vivo, rat
# Protocol: The in vivo time course of distribution, metabolism and elimination of the pentapeptide was investigated in anesthetized adult male rats using physiological concentrations of circulating tritiated pentapeptide.
# Anesthetized male rats were given a bolus intravenous injection of 170 pmoles or 110 ng tritiated pentapeptide diluted in 100 μl PBS Dulbecco's. Blood was collected in tubes containing a mixture of peptidase inhibitors described above, via a silastic catheter implanted into the external jugular vein. Blood was withdrawn just before and 2, 4, 6, 8, 10, 20, 30, 45, 60, 90 and 120 min. after peptide administration. Two milliliters of blood per rat were taken in all and the entire urinary bladder content was collected at a last selected point.
# The biological samples were submitted to centrifugation and Parapak Q extraction conditions, as described above. Chromatrography using HPLC procedure described above and in the reference (Rougeot et al., 1994) was then applied to each extracted sample. The ODS AQ RP-C18 was used for identification of amino-terminal metabolites and Pep RPC HR C18 (Pharmacia, France) for identification of carboxyl-terminal metabolites. The radioactivity content of samples before and after chromatographic separations was determined using a beta counter (Kontron, MR300).
# [3] = system: pentapeptide binding sites; test: Cellular localization of 3H-pentapeptide binding sites by light microscopic autoradiography, in vivo radiolabeling; parameters: species or system rat
# Protocol: The cellular-site localization for physiological concentrations of labeled pentapeptide was investigated by paraffin- or resin-section microscopic autoradiography procedure.
# Sixty minutes after ^3H-pentapeptide (555 KBq, 160 ng or 250 pmoles) i.v. administration, the anesthetized male rats were perfused via the jugular veins with ice-cold Krebs Ringer Bicarbonate Glucosed buffer and then 0.5% paraformaldehyde/0.5% glutaraldehyde fixative PBS buffer (plus glucose 1.6%, CaCl2 0.002% and DMSO 1%) (50 ml/5 min. for each). Tissues were rapidly removed and harvested for paraffin sectioning (Paraplast plus-Sherwood medical, OSI, France) or for resin sectioning (histo-resin Leica, France). All sections were cut at 5 microns (Reichert Jung for paraffin and RM2155 Leica for resin sections) and mounted on Superfrost/Plus glass slides (non gelatin-coated). Paraffin was removed with xylene, and sections were carried through a descending, then an ascending ethanol series (from 100 to 50%, VN and reverse). Dried sections were then processed for light microscope autoradiography by attaching nuclear emulsion-coated (Kodak, NTB2, diluted 1:1 with distilled water) coverslips to them. After air drying for 2 hrs at room temperature the autoradiographs were exposed for 6 to 10 weeks in light-tight boxes at 4° C. Radiosensitive coverslips were developed in Kodak D19 (3 min.) developer and fixed in Kodak fixer (3 min.) Sections were counterstained with Harris' hematoxylin (Prolabo, France) and Toluidine blue (Sigma, France), dehydrated and mounted in Eukitt medium. The tissue and overlying silver grains were viewed and photographed with a Leica photomicroscope equipped with bright-field optics (DMRD Leitz, Leica).
# peptide binding sites = test: In vivo displacement experiments with coinjection of 100-fold excess of unlabeled peptide; parameters: species or system rat
# Text: Biological receptor sites have two essential characteristics that allow specific binding to be identified, in vivo; they have a high affinity for the ligand and the binding is saturable (Whitcomb et al., 1993). Therefore, displacement experiments, using parallel systemic administration of an excess of the corresponding unlabeled peptide has been performed. Furthermore, the specific cellular localization of labeled pentapeptide to target tissues has been identified by section microscopic autoradiography.
# The tritium activity was determined as counts/mm^2.
# In the case of radioactive quantification of organ sections or acid extracts, using a liquid scintillation counter (MR300 Kontron), the tritium activity was determined as cpm/mg protein. Protein concentration was determined by the Bradford method (Bradford et al., 1976).
# [4] = rat, in vivo
# Protocol: Labeled compound i.e. 6.66 MBq, 3 nmoles or 2 mg for whole body autoradiography (WBA) and 370-555 KBq, 170-250 pmoles or 110-160 ng for the pharmacokinetic and cellular-site distribution studies was diluted in 100-200 ml of phosphate-buffered saline (PBS Dulbecco's, Bio Media, France) and administered intravenously into the jugular vein of anesthetized rats (halothan for WBA or pentobarbital for all the other experiments).
# The five week-old rats were sacrificed under halothane, at 90 sec., 3, 60 and 240 min. after i.v. injection of 3 nmoles (6.66 MBq or 2 μg) of tritiated pentapeptide. At the selected time, the restrained animal was immediately immersed in a −80° C. mixture of dry ice and isopentane, to prevent artefactual tracer redistribution. After 48 hours in self-sealing plastic stored at −30° C., the animal was then blocked in mounting medium. Whole body sagittal sections (20 mm) of the frozen rat were made at −30° C. with a cryostat (whole body slicing microtome Leitz 400 with a chest mobil freezer Leitz O M, Leica, France). […]
# The quantitative determination of the radioactivity in various organ sections was carried out by using a gaseous detector of β-particles, which has recently been developed (Charpak et al., 1989; Tribollet et al., 1991). […] The number of counts per pixel was recorded in the β imager 2200 (Biospace, France) with a surface detector of 20×20 cm^2, followed by computer-assisted image analysis with the β Vision program using a HP Vectra computer. The tritium activity was determined as counts/mm^2. The linearity of this method of detection allowed measurement of the non specific binding of ^3H-pentapeptide, measured in various structures or compartments within the section with apparent non binding sites for the peptide (background tissues, e.g. muscle and cardiac blood except brain and spinal cord) or in the same labeled structure, in displacement experiments. […]
# Assessment of tissue peptide targeting was accomplished by a β-radio imager quantification (FIG. 2). […]
# anti-pentapeptide serum = test: competitive liquid phase RIA, unlabelled standard displaces 125I-labelled pentapeptide from the antiserum
# [5] = 180 min after injection, DTPA extraction
# [6] = 60 min, 100-fold excess unlabeled peptide
molecule,measurement,setting,value
QHNPR (not fully specified (residue 4)) [pentapeptide],tissue radioactivity extracted from acid homogenates by methanol,[1]; 5-20 min survival time after 3 nmoles 3H-pentapeptide,72±4%
same,radioactive peptide fraction extracted by methanol with DTPA (16 mM),[1]; 180 min after injection,53±9%
same,radioactive extract representing metabolites,[1]; [5],8±6%
same,radioactive extract representing undissociated peptide complex,[1]; [5],29±14%
same,radioactivity recovered in RP-HPLC peak of free pentapeptide,"[1]; 180 min after injection, DTPA extraction, target organs",52±8%
same,radioactivity eliminated through glomerular filtration,"[2]; anesthetized rats, over a 60 min period, 170 pmoles injected",6 pmol
same,distribution volume,[2]; male rat,35-40 ml/100 g. body weight
same,pentapeptide-binding substance complex as share of circulating peptide fraction,"[2]; plasma, dissociated by acidic pH treatment",approximately 45%
same,time from which plasma concentration is close to basal level,[2]; single i.v. injection of 110 ng tritiated pentapeptide,30 min
same,time to maximal plasma level,"[2]; single i.v. injection of 110 ng tritiated pentapeptide, two male rats",≤ 2 min
same,urine radioactivity that is pentapeptide metabolites,[2]; urinary bladder content,Approximately 80%
same,infused pentapeptide metabolized in the bloodstream,"[2]; within 4 min, proteolysis from the amino-terminal part",35%
same,cellular localization of label in submandibular tissue,[3]; 60 min post-injection,no selective cell association of label was identifiable
same,cellular localization of silver grains in glandular gastric mucosa,[3]; 60 min post-injection,over the chief or peptic cells
same,cellular localization of silver grains in pancreatic tissue,[3]; 60 min post-injection,over the cells of acini
same,localization of silver grains in upper incisor root,[3]; 60 min post-injection,over the entire dentin layer
same,cellular localization of silver grains in kidney,[3]; 60 min post-injection of physiological concentration (160 ng),over the epithelial cells of the S3 segment of the straight portion of the proximal tubules
same,"specific labeling percentage, glandular mucosa of the stomach",peptide binding sites; [6],38-61%
same,"specific labeling percentage, long bone",peptide binding sites; [6],29-38%
same,"specific labeling percentage, pancreatic lobules",peptide binding sites; [6],37-55%
same,"specific labeling percentage, submandibular lobules",peptide binding sites; [6],51-91%
same,displacement of 3H-pentapeptide uptake within the renal outer medullary,peptide binding sites; 60 min post-coinjection of 100-fold excess of unlabeled peptide,almost complete displacement
same,"specific labeling percentage, kidney","peptide binding sites; FIG. 8-B, depends on analysis method (total tissue count or regional analysis)",12 to 92%
same,persistence of label within target tissues,[4],> 240 min
same,radioactivity in intestinal content,[4],No radioactivity was found in the intestinal content
same,tissue to blood ratio,[4],~2
B1,50% displacement of the 125I-labelled pentapeptide,anti-pentapeptide serum,< 570 fmol
same,detection limit (80% binding),anti-pentapeptide serum,106 fmol
B2,50% displacement of the 125I-labelled pentapeptide,anti-pentapeptide serum,< 570 fmol
same,detection limit (80% binding),anti-pentapeptide serum,106 fmol

# — patent US6589750B2, “Therapeutic use of the SMR1 protein, the SMR1 maturation products, specifically the QHNPR pentapeptide as well as its biologically active derivatives” (Institut Pasteur, priority 1997, dated 2003)
